Measurements as given in patent publication US20190321401A1 (JUNO THERAPEUTICS, published 2019).

T1: HPV 16 E7 peptide on HLA-A*02:01 (human)
T1 peptide: YMLDLQPET

T2: HPV 16 E6 peptide on HLA-A*02:01 (human)
T2 peptide: TIHDIILECV

B1: TCR 62 (TCR, V domains shown)
Valpha: AQTVTQSQPEMSVQEAETVTLSCTYDTSENNYYLFWYKQPPSRQMILVIRQEAYKQQNATENRFSVNFQKAAKSFSLKISDSQLGDTAMYFCALYTYKYIFGTGTRLKVLA
Vbeta: EAGVAQSPRYKIIEKRQSVAFWCNPISGHATLYWYQQILGQGPKLLIQFQNNGVVDDSQLPKDRFSAERLKGVDSTLKIQPAKLEDSAVYLCASSLDTRGSSYNEQFFGPGTRLTVL
B2: TCR 65 (TCR, V domains shown)
Valpha: EDQVTQSPEALRLQEGESSSLNCSYTVSGLRGLFWYRQDPGKGPEFLFTLYSAGEEKEKERLKATLTKKESFLHITAPKPEDSATYLCAVQAERGSTLGRLYFGRGTQLTVWP
Vbeta: DVKVTQSSRYLVKRTGEKVFLECVQDMDHENMFWYRQDPGLGLRLIYFSYDVKMKEKGDIPEGYSVSREKKERFSLILESASTNQTSMYLCASSLWGRRNTGELFFGEGSRLTVL

What was measured:
[1] = target: T1, HPV 16 E7 peptide on HLA-A*02:01; test: multimer staining
[2] = target: T2, HPV 16 E6 peptide on HLA-A*02:01; test: multimer staining

| Binder | binding result [1] | binding result [2] |
| --- | --- | --- |
| B1 | recognises | no recognition |
| B2 | no recognition | recognises |
